Results reported in the DeepSol protein solubility set.

experiment: soluble on expression in E. coli; label from the status in PepcDB or PDB records

Sequence	soluble on expression in E. coli
MKECKKCKSNEYTNKQLVMMINECGHPLCKNCVDNIFALNSGNCHVCNRVLRKNNFREQIYEDPLIDKETFLRRKLRKIYNLKQDDFENLREFGDYQERFETVVYNLVFETNVNETNAEIQAFEEKHKEQIDRNKRRLDDDQKWIEDQLREERAMKARMTDHMEMDAKEQEAASAVTDTRKIMDELRDSNVAAEVILDRERKKQIEKELEEKEEQEKRKRRNKEMLQTRKRAAENMSFNTVIRVAGRAYVHQPLELVINGPPMPNVSEIEALGYLAHIRQPTAEYIAGGYTPMLGCSRALFEARIDLFSF	not soluble
MGSDKIHHHHHHMTDKMQSLALAPVGNLDSYIRAANAWPMLSADEERALAEKLHYHGDLEAAKTLILSHLRFVVHIARNYAGYGLPQADLIQEGNIGLMKAVRRFNPEVGVRLVSFAVHWIKAEIHEYVLRNWRIVKVATTKAQRKLFFNLRKTKQRLGWFNQDEVEMVARELGVTSKDVREMESRMAAQDMTFDLSSDDDSDSQPMAPVLYLQDKSSNFADGIEDDNWEEQAANRLTDAMQGLDERSQDIIRARWLDEDNKSTLQELADRYGVSAERVRQLEKNAMKKLRAAIEA	not soluble
MNHKAFAKFPSSASISPNPFTVSIPDEQLDDLKTLVRLSKIAPPTYESLQADGRFGITSEWLTTMREKWLSEFDWRPFEARLNSFPQFTTEIEGLTIHFAALFSEREDAVPIALLHGWPGSFVEFYPILQLFREEYTPETLPFHLVVPSLPGYTFSSGPPLDKDFGLMDNARVVDQLMKDLGFGSGYIIQGGDIGSFVGRLLGVGFDACKAVHLNFCNMSAPPEGPSIESLSAAEKEGIARMEKFMTDGYAYAMEHSTRPSTIGHVLSSSPIALLAWIGEKYLQWVDKPLPSETILEMVSLYWLTESFPRAIHTYREWVPTASAPNGATPYQKELYIHKPFGFSFFPKDLVPVPRSWIATTGNLVFFRDHAEGGHFAALERPRELKTDLTAFVEQVWQKGRSHHHHHH	soluble
MSLQTYSSSKRFNINVSQTIGRRIYMEDMVMIKGELFDGIDYIGVFDGHNGKDAAKKAMETFHKLLDEYLIKSDHYLEHLNHICNEIQQLISFTTASGTTASVIIIREDDVIFCYIGDSPIYIKSNEQVKKISIDHNTSNEEEVKRIINCGGSVVDINGTKRVNSKIVLTRSLGDKSLHPPLTNEPTIISIPLNEIDSIIVASDGISSISCELLNELTNPTFGLEQQAVNIRNIAYEKNSPDNISVVVIQITQPIISEGHHHHHH	soluble
MTTANTPVRPKSAIDAVADAYTEKLIELNPSFATTLGLPGHETEYQDYSPAGAAAHAEATRLALEALAGLEPSDDVDAVTLDAMRERLGLELEIHQSGWDAADLNNIASPAQDIRAIFDLMPTDTVEHWEHIAGRAANVPGAIEGYIASLRAAKDDRKVAAARQIRIVIEQTGRYAAEDGFFAKMAADASLGDAPLPAEVQDKLDAGTSAARSAYSALGAFLRDELLPVAPEKDAVGRERYSLASRSFIGAEVDLEETYAWGVQELERLISEQEKVAGQIKPGASIEEAKSILNNDPARQIKGTDALKAWMQELSDRAVSELADVHFDIPDVMKTLECMIAPTDEGGIYYTGPSDDFSRPGRMWWSVPAGEDTFTTWSETTTVFHEGVPGHHLQVATATYRRELLNNWRRNVCWVSGHGEGWALYAEQLMLELGYLKDPGDHMGMLDGQRMRAARVVFDIGVHLELPVPERWGTGTWTPEKGFDFLKANLDISEGQLQFEFTRYLGWPGQAPSYKVGQRLWEQIRAELESREGFDLKSFHSKALNIGSVGLDVLRRALL	soluble
MMRRGLLLLNLGTPNNADIRAVKLYLREFLTDKRVIDLPTIPRYILVYCLILPFRSPKSAQAYQSIWTEKGSPLLYHSQNLVTKLQSALKDEYKIALGMRYGTPSITTALAELKDCHSLTILPLFPQYSSAATGSAIEKTLSHLANQEIIPSIKIIRDFYQRPEYIQAQAKIMKPYIKDNFHLLFSYHGIPERHIHKSGCDTLCPQTCTPIYDKNQACYRAQCYQTSLLLAKELQLGTHQYTTAFQSRLGKTPWIKPYTDEIFAELISKGIKNIVVSCPSFVADCLETLEEIGIRAKEQWEKLGGEQFILTPCMNDHPEWIKAIQSIVNEQF	not soluble
MGSDKIHHHHHHMFPFERQNKIIHLLDQNSKITVPELSRILDVSISTIRNDLSSLEESGMIKKVHGGAVLLKSEEKFTNFNDRIIRNIEEKEAIAKEAATLVKNNQTIILDASSTALALAKELHGFSRLTVITSGLYTAIELKDNPNISVILTGGIVTTNSFTLEGILGANLIENIHADLCFMSAKGFTMEEGLTDFNIYETELKRLLAKRTNKLIALLDHTKMGVISTASITAAENIDLLITDNKINKALYKKFQDAGLPVKIAE	not soluble
VKLVIDLLGAQTRSHLRGIGRYTRELTKALLRQAGEAHAIHLVLHAPLEQASDALIAEFGALLPRARIHLLRLPRHTSEHLTGNTWRHHAASRLSRYGLTCLDADVVWHSSVFEGYDEDGVLPDAPLFHTNRVATLYDLIPLHDPEVFLPGSLPKAWYERRSAFLSSCDLLFCLSEWTAQEAVQRLHLDPERLVVIGGGVDSNFRPLVFDAQQRGNLLARFSITRPYVLYNGGLDQRKNVPALLRAFALLPMAIRQRHQLVVLGDDREVHRPMMALCRQLGLDQQEVVFTGRVNDSDLVALYGLCALFVFPSRLEGFGLPVLEAMACGAPTLCSDAASLPEVAGRQDILFPPEDHVALSARMSQVLDDPQWLQSLRDYGLRRATAFTWDRVAQRALDALTRLQVRSSEMKSQRVSEVSPATHTETAAPEMLPITEIQLVTDLAALPGDASRDDLAQAAFSICSMRVAPQAPQWLVDVSQIAKTDIGTGTSRVTRSILREWLSTPPPGVCIVPVYLREGQYHYARSFTAQVLGLVSETPQEGIVMVYPGDVFVGLDWAPEAINAARARLQDWRRVGVATCFVVHDLLPMTLPDCFHPYSRNLFEQWLRTVAHLADAIACISATTAEVLSRWLQDTTVDYQFGIPPQVKHFPLGVSFPEVSTAQEAIREELRTALVMRPTLLIVGTLEPRKGHVHALRICEQLWEQGEDVNLVVVGQRGWSEQALVMRLTRHPEVGRRLFWLSDAADAELSALYVHATALLALSEGEGYGLPLLEAAHFRLPILARPLPVFLEIMADYPHYLDGTAPDTWSATVAQWLHASDRPISRPVPIASWKESAQQLADIVNDCRFLLDSKKLSAPLK	soluble
MGSDKIHHHHHHGDWLNLNPSTSVTTPQAIRTLEEAQIALNGIYRIAASHSYYGDNYLYYADCRGEDVQARVSKGAGKRVSPYYEFNVTADDALNITRVWNQPYSVIHQANSLLERIESGAVVTDDAVALNCIKAEALALRGLALFDLTRLFAMPYTLNNGTSLGVPIEIKTTLPTHQPARNTVAECYQQVIDDMTGALKLSALSADKKNGYLNVWSVKALLSRVYLYMNDNEKALALAKEVMNNGGLYQLFTHDEYPTVWGKDFSSESLFEFYYTLSEPDGGTGGEGAPMVYADNVKDWNNLVLTKAFLDLLGEDPDDVRHSLNRLPEKPEEDILPEGSKGYPKYLNKYPGKTGDNPQDNDICIIRLSEVYLNAAEAAFKLGGAENLKFSLDCLNAIVSRANPVKSVKETELSLERILKERRKELVGEGHAFFDAMRNGLSVSRTGGWHLPSVAAAAVISPSDPRVALPIPQAEIDANPNMVQNPH	not soluble
YLGEVYTAKTDDGVKIKLLRYHPPGEGVNDGVQPVVLFSGLLCNMNEYLTHTPPELKDLYKTQLPSELADWAVGDERIQQDPMLYYSLAYYLWKQGYDVWLVNYRGTGVGELKSGVGSARTSLDTWAIYDTKAAITKVYEVTGKHPVIGGHSTGGLVSYVYLQGAKFKWTFACLFKKPWCKKVVSDDDLVRERNGLTEGEETVVGVIALDPAMIPPLPKLTDLKLMWLLLDTPLYIDIRGIMNLIAKNDRLWCATTHTIDEVFELIFEMNEEYGQYSELIRDLTFTNPGNMNDELNDFLVRYVADSLYTPTLAHYNDFGTHRTAREYFENGGRSYLIVPPEPNPGKDGYYYYILNMQKVRVPFITLLSEYDALVEAEQIIRDLMEAKTPHQFDEYYIIEGTAHLDLPFGLKAPSEVFPKVGAWLEK	not soluble
MGSDKIHHHHHHMSVGIRHDDLRRRNRAMVIAAVRRAGRPSRTEIAATTGLSHSTISAISSDLIGEGILAEGKPSEAGALKRGRPQVGLGLNPEAAAVMTVVLSLNFLSVAVIDYAGQVISEEQRRLDTLTMSREALIGECVAIVRRRLEDPDIDVRSVARIALAIQGITDTEARAMLWSPITPQTDIAFADILEAEFGIPATMENDCNMMAVALRWRDPERYRDDFIAILLSHGIGMGLVLKGELFTGTHSSGGEFGHMIHRPGGALCRCGRRGCVEAYAGNYAIWRNARQLSEDTEPVADVSDAQMRALAATARERDGPEREAYRKAGEALGYGLGSLFALIDPAPVAMVGVSAAAFDLIEPALREAIAQTAGGQHSESISFDTEPNELPLIREGCAMRALTFVDQEIFAPGVQTKAGLAAKKNVA	not soluble
MGPIKTIKKKKRAEKKVDRNVLLAATAAATSASAAAALNNNDDDDDSSSQSLDWWDGFSRRIYGGSTDPKTFESVFKISRKTFDYICSLVKADFTAKPANFSDSNGNPLSLNDRVAVALRRLGSGESLSVIGETFGMNQSTVSQITWRFVESMEERAIHHLSWPSKLDEIKSKFEKISGLPNCCGAIDITHIVMNLPAVEPSNKVWLDGEKNFSMTLQAVVDPDMRFLDVIAGWPGSLNDDVVLKNSGFYKLVEKGKRLNGEKLPLSERTELREYIVGDSGFPLLPWLLTPYQGKPTSLPQTEFNKRHSEATKAAQMALSKLKDRWRIINGVMWMPDRNRLPRIIFVCCLLHNIIIDMEDQTLDDQPLSQQHDMNYRQRSCKLADEASSVLRDELSDQLCGKNSSA	soluble
MCLVKDKLKDIISVKSALSFSLKGDFDCPLEENSLFKALQILKNFLKSKNFSHSVIKSLDTLAIEVEKNIPTQAGLGGGSTDAGGLLYHLNQIFDWRLSLEELYSMGSLVGADTNFFISQYKSTNATSYGEVIENFEEEPLENRLEIYAPNHVFCSTKAVYQAYKPETCFSQAKEWLKKPSLECLKTYDRNGLNDLLKPALLTNQALKDIESELGKEWFFSGSGSAFFRLKPMQKGGELEHHHHHH	not soluble
MTKIFEAKVLAVGPEALSMIKDANMLILFGEEAPQDLADYCYKIDNKNLSGHIKKGGHLVINGNDCQITAVGSVVEKNLTGLGHITISLDGSKESSLPGTLHIQAEFPVQLEAGSLIQIFD	soluble
MGSDKIHHHHHHMDIQNMPREQLGVCAEGNLHSVYLMFNANDNVESQLRPCIANVAQYIYELTDQYSDSAFNGFVAIGANYWDSLYPESRPEMLKPFPAMQEGNREAPAIEYDLFVHLRCDRYDILHLVANEISQMFEDLVELVEEERGFRFMDSRDLTGFVDGTENPKGRHRQEVALVGSEDPEFKGGSYIHVQKYAHNLSKWHRLPLKKQEDIIGRTKQDNIEYESEDKPLTSHIKRVNLKDENGKSIEILRQSMPYGSLKEQGLMFISTCRTPDHFEKMLHSMVFGDGAGNHDHLMHFTSALTGSSFFAPSLDFLMQFDN	not soluble
MSYYHHHHHHLESTSLYKKAGMSDFYDPRERDPSVSRRPQNRQSDEWIRELLLRGTIARVATLWQGEDGAAFPFITPLAYAYRPEQGDLVYHTNVVGRLRANAGQGHPATLEVSEIGQFLPSNSPLELSVQYRSVMVFGTARVLAGEDARAALTTLSERVFPGLKVGETTRPISEDDLKRTSVYSLSIDRWSGKENWAEQAIQEEDWPALGPEWLG	soluble
MAHHHHHHMDIERLAKNATEITHQSLMLKNIQKEQNNYCKQCGYIYNYDDYMYMYMKRFNLSKWRETSNCLSGRNPYGPFSGGMESSQFDNENCIRCIYCGAIIDTIEMYDHWNGKESYIELNSYREKFIFDKNKKSYWKNKITSLEKNVSLFKEDQNQAYNITYEKCTDCGNDFLHFINIQTRSADEGSTIIYFCPNCKKQTTVNN	not soluble
